T1: human CD39 (ectonucleoside triphosphate diphosphohydrolase-1) (human, UniProt P49961 1-510)
T1 construct: whole, on cells; also called hCD39; ENTPD1
T1 sequence (looked up): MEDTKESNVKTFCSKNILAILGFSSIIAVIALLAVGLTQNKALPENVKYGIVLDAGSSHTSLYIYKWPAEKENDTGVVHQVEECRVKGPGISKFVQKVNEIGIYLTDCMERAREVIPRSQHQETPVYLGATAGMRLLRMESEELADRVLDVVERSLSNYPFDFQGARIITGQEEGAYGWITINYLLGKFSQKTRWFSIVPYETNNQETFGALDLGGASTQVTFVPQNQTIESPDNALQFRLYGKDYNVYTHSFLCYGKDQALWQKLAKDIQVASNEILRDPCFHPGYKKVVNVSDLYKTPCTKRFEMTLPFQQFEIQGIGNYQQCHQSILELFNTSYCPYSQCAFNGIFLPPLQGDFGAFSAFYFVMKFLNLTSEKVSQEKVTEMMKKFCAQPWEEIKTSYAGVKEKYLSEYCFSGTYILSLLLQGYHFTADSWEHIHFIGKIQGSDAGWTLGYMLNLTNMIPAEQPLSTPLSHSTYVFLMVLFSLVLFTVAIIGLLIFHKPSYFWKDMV


The binders below were run against T1, human CD39 (ectonucleoside triphosphate …) (assay: flow cytometry epitope competition on HCC1739BL cells, competitor PE-Clone A1).
Method: HCC1739BL cells were incubated with a panel of 18 anti-human CD39 monoclonal antibodies (Human/Rabbit chimeric clones; unconjugated, 2 μg/mL) at 4° C. for 30 minutes, followed by washing and staining with PE-conjugated mouse anti-human CD39 monoclonal antibody (Clone A1) for 30 minutes at 4° C. Cells were then analyzed by flow cytometry and PE median fluorescence intensity (MFI) was detected. Cells incubated with media instead of chimeric antibody were used as control.
Unconjugated anti-human CD39 monoclonal antibodies (Human/Rabbit chimeric clones; 2 μg/mL) were incubated with HCC1739BL cells (1×10⁵ cells) for 30 minutes at 4° C. Cells were then washed twice with cell staining buffer and stained with PE-conjugated mouse anti-human CD39 monoclonal antibody Clone A1 (0.25 μg/mL, Biolegend #328208) for 30 minutes at 4° C. Cells were then washed twice and analyzed by a Cytek™ Aurora flow cytometer. PE median fluorescence intensity (MFI) was detected, and data was analyzed by FCS […] Express 7 software (De Novo Software). Cells incubated with media instead of the chimeric antibody were used as control.

Binder	binding result
PEO24, Human/Rabbit chimeric anti-human CD39 monoclonal antibody (antibody, V domains shown, also called clone PEO24) VH: QSVEESGGRLVTPGTPLTLTCTVSGIDLSSNAMSWVRQAPGKGLEYIGIIRNNDITYYASWAKGRFTISKTSTTVDLIITSPTTEDTATYFCARGGGSYSIVFWNLWGPGTLVTVSS VL: AYDMTQTPASVEVAVGGTVTINCQASERIYSNLAWYQQKPGQRPKLLIYYASTLASGVSSRFKGSGSGTQFTLTISGVQCADAATYYCQQGYSNNNVDNTFGGGTEVVVR	binds
PEO18, Human/Rabbit chimeric anti-human CD39 monoclonal antibody (antibody, V domains shown, also called clone PEO18) VH: QSVKEAGGRLVTPGGSLTLTCTVSGFSLSAYGISWVRQAPGKGLEWIGIIYSSGRTYYANWAKGRFTISKTSSTTVDLKMTSLTTEDTAAYFCARSRAGISSGDGFDSWGPGTLVTVSS VL: ALVMTQTPSSVSAAVGGTVTINCQASQNIYSNLAWYQQKPGQRPQLLIYRASTLASGVPSRFKGSASGTEYTLTISGVQCDDAATYYCQQGFDSSNIDNTFGGGTEVVVT	binds
PEO23, Human/Rabbit chimeric anti-human CD39 monoclonal antibody (antibody, V domains shown, also called clone PEO23) VH: QSVEESGGRLVTPGTPLTLTCTASGFSLSTHAINWVRQAPGKGLEWIGITYASGRTYYASWAKGRFTISKTSTTVDLKITSPTTEDTATYFCARNGADETFYYFDLWGPGTLVTVSS VL: AYDMTQTPASVEAAVGGTVTIKCQASQNINTWLSWYQQKAGQPPKLLIYRASTLASGVSSRFKGSGSGTQFTLTISGVECADAATYYCQQYDASINIDNAFGGGTEVVVK	binds

These binders were tested against T1, human CD39 (ectonucleoside triphosphate …) (assay: stable immune complex assay, HCC1739BL cells, 2 µg/mL, anti-human IgG Fc AF488 MFI, 24 h 37°C vs 20 min 4°C).
Method: Exemplary anti-human CD39 antibodies presenting high, low and no ADCC activity (2 μg/mL) were incubated with HCC1739BL cells for 24 hours at 37° C. in 5% CO₂ or 20 minutes at 4° C., followed by secondary antibody staining (anti-human IgG (Fc specific), Alexa Fluor® 488) for 30 minutes at 4° C. Cells were then washed and analyzed by flow cytometry. The difference in AF488 MFI between 20 minutes and 24 hours treatment represents the loss of human CD39 on cell membrane that was calculated as described in Materials and Methods. […] Hu/Ra: Human/Rabbit chimeric antibody; hIgG1: humanized rabbit antibody, IgG1 isotype.
HCC1739BL cells (5×10⁵ cells/mL) were incubated with anti-human CD39 monoclonal antibodies (2 μg/mL) or left untreated for 24 hours at 37° C. in 5% CO₂. The following day, untreated cells were exposed to the same panel of monoclonal antibodies (2 μg/mL) but for 20 minutes at 4° C. to obtain the basal level of CD39 expression. Cells were then washed twice with cell staining buffer and stained with anti-human IgG (Fc specific) Alexa Fluor® 488 (1:2000) for 30 minutes at 4° C., followed by two additional washes and fixation with paraformaldehyde (PFA, 2%) for 10 minutes at room temperature. Lastly, cells were washed twice and analyzed by a Cytek™ Aurora flow cytometer (Cytek Biosciences). Alexa Fluor® 488 (AF488) MFI was detected, and data was analyzed by FCS Express 7 software (De Novo Software). The percentage of human CD39 loss on cell membrane at 24 hours was calculated as: [(20 min MFI-24 h MFI/20 min MFI)]X100.

Binder	loss of human CD39 (immune complex) on cell membrane at 24 hours [%]
PEONP22, afucosylated counterpart of PEOWT22 (antibody, human IgG1, kappa, V domains shown, afucosylated (Fc glycan); no genetic modifications, Produced by CHO cells stably transfected with the parental PEOWT22 plasmid) VH: EVQLVESGGGVVRPGGSLRLSCAASGFTFSSYAMHWVRQAPGKGLEWVAVISYDVSNKYYADSVKGRFTISRDNSKNTLYLQMNSLRAEDTAVYYCARSYYYYYGMDVWGQGTTVTVSS VL: DVVMTQSPSSLSASVGDRVTITCRASQSISRYLAWYQQKPGQAPRLLIYDASNRATGIPVRFSGSGSGTDFTLTISRLEPEDFAVYYCQQFGRSPRTFGQGTRLEIKR	< 30
PEO19, Human/Rabbit chimeric anti-human CD39 monoclonal antibody (antibody, V domains shown, also called clone PEO19) VH: QSVEESGGRLVTPGTHLTLTCTVSGFSLSKSIISWVRQAPGKGLEYIGIIGSSGSTYYANWAKGRFTISKTSSTTVDLRMTSLTPEDTATYFCARGLLYSGNKSWGPGTLVTVSS VL: AIDMTQTPSSVSAAVGGTVTINCQSSQSVLLNNQLSWFQQKPGQPPKLLIYDASTLESGVPSRFTGSGSGTQFTLTISDLECDDAATYYCLGGYSGNLYAFGGGTEVLVK	< 30
PEO20, Human/Rabbit chimeric anti-human CD39 monoclonal antibody (antibody, V domains shown, also called clone PEO20) VH: QSVEESGGRLVTPGTPLTLTCTVSGFSLSSYAISWVRQAPGKGLEYIAIINSYGTTYYASWAKGRVTISKTSSTVDLKISSPTTEDTATYFCARGDSYGSGVGLGLWGPGTLVTVSS VL: AYDMTQTPASVEVAVGGTVTIKCQASQNIYSNLAWYQQKPGQRPKLLIYRASSLASGVPSRFSGSGSGTEFTLTISGVQCDDAATYYCQQGFSSNNVDNTFGGGTEVVVK	< 30
PEO21, Human/Rabbit chimeric anti-human CD39 monoclonal antibody (antibody, V domains shown, also called clone PEO21) VH: QSVEESGGRLVTPGTPLTLTCTVSGFSLSSYAMSWVRQAPGKGLEYIGIISSSGSTYYASWAKGRFTISKTSTTVDLKISSPTTEDTATYFCARDRVIYSIGPYYFNLWGPGTLVTVSS VL: AYDMTQTPSSVSATVGGTVTINCQASEIIYSNLAWYQQKPGQPPKLLIYGASTLASGVPSRFKGSGSGTEYTLTISDLQCDDAATYYCQQSFSSNNVGNIFGGGTEVVVK	< 30

Each binder was assayed against T1, human CD39 (ectonucleoside triphosphate …) (assay: cell-based or functional assay).

Binder	EC50 of NK cytotoxicity toward human eosinophils (in-vitro ADCC assay, human NK effector cells) [ng/mL]
PEO22, optimized afucosylated counterpart of PEOWT22 (antibody, human IgG1, kappa, V domains shown, afucosylated (Fc glycan); no genetic modifications) VH: EVQLVESGGGVVRPGGSLRLSCAASGFTFSSYAMHWVRQAPGKGLEWVAVISYDVSNKYYADSVKGRFTISRDNSKNTLYLQMNSLRAEDTAVYYCARSYYYYYGMDVWGQGTTVTVSS VL: DVVMTQSPSSLSASVGDRVTITCRASQSISRYLAWYQQKPGQAPRLLIYDASNRATGIPVRFSGSGSGTDFTLTISRLEPEDFAVYYCQQFGRSPRTFGQGTRLEIKR	0.294
PEOWT22, fully human anti-CD39 monoclonal antibody (parent, fully fucosylated) (antibody, human IgG1, kappa, V domains shown) VH: EVQLVESGGGVVRPGGSLRLSCAASGFTFSSYAMHWVRQAPGKGLEWVAVISYDVSNKYYADSVKGRFTISRDNSKNTLYLQMNSLRAEDTAVYYCARSYYYYYGMDVWGQGTTVTVSS VL: DVVMTQSPSSLSASVGDRVTITCRASQSISRYLAWYQQKPGQAPRLLIYDASNRATGIPVRFSGSGSGTDFTLTISRLEPEDFAVYYCQQFGRSPRTFGQGTRLEIKR	3.03

Source: patent US20250289903A1 (PURINNOMIA BIOTECH, published 2025)
